Data published in PMC6166933 (2018).

Key:
[1] = target: T1, Recombinant human RO60 (human, UniProt P10155 1-538); experiment: BLI; rRO60 1833 nM
[2] = target: T1, Recombinant human RO60; experiment: BLI; rRO60 917 nM

T1 sequence (P10155 whole entry): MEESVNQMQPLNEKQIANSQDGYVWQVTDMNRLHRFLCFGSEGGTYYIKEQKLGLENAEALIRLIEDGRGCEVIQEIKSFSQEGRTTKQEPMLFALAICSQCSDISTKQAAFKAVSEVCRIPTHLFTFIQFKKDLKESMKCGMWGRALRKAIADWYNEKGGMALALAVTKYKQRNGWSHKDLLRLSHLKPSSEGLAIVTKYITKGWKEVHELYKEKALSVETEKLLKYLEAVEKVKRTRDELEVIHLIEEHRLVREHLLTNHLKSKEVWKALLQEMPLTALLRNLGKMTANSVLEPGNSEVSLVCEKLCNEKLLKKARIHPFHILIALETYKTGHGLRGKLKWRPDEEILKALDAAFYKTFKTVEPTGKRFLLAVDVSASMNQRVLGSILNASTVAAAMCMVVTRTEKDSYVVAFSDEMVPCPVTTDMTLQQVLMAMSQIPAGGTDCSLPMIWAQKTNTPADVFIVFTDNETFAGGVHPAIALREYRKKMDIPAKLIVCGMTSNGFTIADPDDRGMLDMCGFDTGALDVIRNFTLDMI

- koff [1]: 0.0062 s⁻¹
- koff [2]: 0.0046 s⁻¹
B1: Recombinant GST-tagged human DDX6 (natural protein)
chain: MSTARTENPVIMGLSSQNGQLRGPVKPTGGPGGGGTQTQQQMNQLKNTNTINNGTQQQAQSMTTTIKPGDDWKKTLKLPPKDLRIKTSDVTSTKGNEFEDYCLKRELLMGIFEMGWEKPSPIQEESIPIALSGRDILARAKNGTGKSGAYLIPLLERLDLKKDNIQAMVIVPTRELALQVSQICIQVSKHMGGAKVMATTGGTNLRDDIMRLDDTVHVVIATPGRILDLIKKGVAKVDHVQMIVLDEADKLLSQDFVQIMEDIILTLPKNRQILLYSATFPLSVQKFMNSHLQKPYEINLMEELTLKGVTQYYAYVTERQKVHCLNTLFSRLQINQSIIFCNSSQRVELLAKKISQLGYSCFYIHAKMRQEHRNRVFHDFRNGLCRNLVCTDLFTRGIDIQAVNVVINFDFPKLAETYLHRIGRSGRFGHLGLAINLITYDDRFNLKSIEEQLGTEIKPIPSNIDKSLYVAEYHSEPVEDEKP
